According to patent publication US10500249B2, “Compositions and methods for preventing or treating diseases, conditions, or processes characterized by aberrant fibroblast proliferation and extracellular matrix deposition” (MOERAE MATRIX, INC., priority 2014, dated 2019):

Experiments:
Assay in all cases: Kinase Profiling Assay
Type in all cases: biochemical
Settings in all cases: 100 μM
JNK2α2 (h) = JNK2α2 (h) (Homo sapiens, UniProt P45984)
Outline: (§1)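 Radiometric filter-binding format: cationic substrate takes up labeled phosphate from ATP unless the inhibitor peptide blocks the kinase. Substrate bound to an anionic filter, scintillation-counted, normalized to 100% activity control. Duplicates; part of a 266-kinase selectivity panel for MK2 peptides.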

WNK2 (h) = WNK2 (h) (Homo sapiens, UniProt Q9Y3S1)
Outline: as §1

PKCβI (h) = target: T1, PKCβI (h) (Homo sapiens, UniProt P05771)
T1 construct: purchased Millipore
Outline: as §1

cKit(D816H) (h) = target: T2, cKit(D816H) (h) (Homo sapiens, UniProt P10721, D816H)
T2 construct: purchased Millipore
Outline: as §1

PTK5 (h) = PTK5 (h) (Homo sapiens, UniProt P42685)
Outline: as §1

Fyn (h) = target: T3, Fyn (h) (Homo sapiens, UniProt P06241)
T3 construct: purchased Millipore
Outline: as §1

MAPKAP-K3 (h) = MAPKAP-K3 (h) (Homo sapiens, UniProt Q16644)
Outline: as §1

Rsk4 (h) = Rsk4 (h) (Homo sapiens, UniProt Q9UK32)
Outline: as §1

MSK1 (h) = target: T4, MSK1 (h) (Homo sapiens, UniProt O75582)
T4 construct: purchased Millipore
Outline: as §1

PKCδ (h) = target: T5, PKCδ (h) (Homo sapiens, UniProt Q05655)
T5 construct: purchased Millipore
Outline: as §1

DAPK1 (h) = target: T6, DAPK1 (h) (Homo sapiens, UniProt P53355)
T6 construct: purchased Millipore
Outline: as §1

Aurora-B (h) = Aurora-B (h) (Homo sapiens, UniProt Q96GD4)
Outline: as §1

Haspin (h) = target: T7, Haspin (h) (Homo sapiens, UniProt Q8TF76)
T7 construct: purchased Millipore
T7 sequence (Q8TF76 1-798): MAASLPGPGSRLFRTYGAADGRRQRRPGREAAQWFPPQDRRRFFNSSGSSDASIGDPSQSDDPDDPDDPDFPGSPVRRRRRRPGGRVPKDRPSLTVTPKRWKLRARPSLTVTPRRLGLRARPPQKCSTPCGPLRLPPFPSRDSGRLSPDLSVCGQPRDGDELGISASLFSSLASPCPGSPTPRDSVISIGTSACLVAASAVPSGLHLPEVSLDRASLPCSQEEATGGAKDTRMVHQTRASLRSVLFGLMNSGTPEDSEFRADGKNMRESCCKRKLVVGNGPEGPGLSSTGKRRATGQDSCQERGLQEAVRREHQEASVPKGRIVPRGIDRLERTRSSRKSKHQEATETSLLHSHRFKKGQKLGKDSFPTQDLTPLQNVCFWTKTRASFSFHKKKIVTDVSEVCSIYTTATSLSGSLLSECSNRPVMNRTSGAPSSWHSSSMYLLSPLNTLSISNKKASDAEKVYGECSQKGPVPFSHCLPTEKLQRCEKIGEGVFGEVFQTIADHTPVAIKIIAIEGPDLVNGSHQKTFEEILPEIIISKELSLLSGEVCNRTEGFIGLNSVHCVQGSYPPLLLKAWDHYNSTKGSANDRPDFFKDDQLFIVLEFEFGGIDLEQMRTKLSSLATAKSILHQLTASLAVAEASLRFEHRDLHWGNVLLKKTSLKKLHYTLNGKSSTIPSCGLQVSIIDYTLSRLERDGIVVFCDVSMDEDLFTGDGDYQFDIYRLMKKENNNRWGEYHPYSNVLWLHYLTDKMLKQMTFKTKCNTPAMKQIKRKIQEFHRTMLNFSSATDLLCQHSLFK
Outline: as §1

SAPK4 (h) = target: T8, SAPK4 (h) (Homo sapiens, UniProt O15264)
T8 sequence (O15264 1-365): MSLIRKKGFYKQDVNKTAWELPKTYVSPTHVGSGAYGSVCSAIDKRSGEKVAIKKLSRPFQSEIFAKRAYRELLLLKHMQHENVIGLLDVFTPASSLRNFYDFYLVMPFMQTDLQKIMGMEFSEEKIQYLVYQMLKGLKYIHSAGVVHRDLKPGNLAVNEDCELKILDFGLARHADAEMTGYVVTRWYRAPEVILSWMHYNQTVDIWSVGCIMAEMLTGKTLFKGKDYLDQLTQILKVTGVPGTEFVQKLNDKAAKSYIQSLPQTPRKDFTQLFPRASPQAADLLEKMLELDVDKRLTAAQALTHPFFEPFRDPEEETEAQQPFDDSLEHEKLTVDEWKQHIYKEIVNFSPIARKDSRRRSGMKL
Outline: as §1

Rsk2 (h) = Rsk2 (h) (Homo sapiens, UniProt P51812)
Outline: as §1

NEK2 (h) = target: T9, NEK2 (h) (Homo sapiens, UniProt P51955)
T9 construct: purchased Millipore
T9 sequence (P51955 1-445): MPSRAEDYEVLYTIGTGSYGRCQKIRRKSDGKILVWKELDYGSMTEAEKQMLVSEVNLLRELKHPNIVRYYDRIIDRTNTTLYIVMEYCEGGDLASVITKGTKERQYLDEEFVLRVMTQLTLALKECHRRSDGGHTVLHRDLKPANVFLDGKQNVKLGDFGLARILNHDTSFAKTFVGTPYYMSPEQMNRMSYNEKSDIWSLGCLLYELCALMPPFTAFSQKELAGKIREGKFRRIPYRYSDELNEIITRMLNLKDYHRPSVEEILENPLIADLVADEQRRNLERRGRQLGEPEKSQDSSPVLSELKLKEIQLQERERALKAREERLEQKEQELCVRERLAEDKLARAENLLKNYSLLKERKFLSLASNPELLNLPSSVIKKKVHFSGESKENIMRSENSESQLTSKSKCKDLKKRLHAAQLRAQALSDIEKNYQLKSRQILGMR
Outline: as §1

Sequence of WNK2 (h) (Q9Y3S1 whole entry): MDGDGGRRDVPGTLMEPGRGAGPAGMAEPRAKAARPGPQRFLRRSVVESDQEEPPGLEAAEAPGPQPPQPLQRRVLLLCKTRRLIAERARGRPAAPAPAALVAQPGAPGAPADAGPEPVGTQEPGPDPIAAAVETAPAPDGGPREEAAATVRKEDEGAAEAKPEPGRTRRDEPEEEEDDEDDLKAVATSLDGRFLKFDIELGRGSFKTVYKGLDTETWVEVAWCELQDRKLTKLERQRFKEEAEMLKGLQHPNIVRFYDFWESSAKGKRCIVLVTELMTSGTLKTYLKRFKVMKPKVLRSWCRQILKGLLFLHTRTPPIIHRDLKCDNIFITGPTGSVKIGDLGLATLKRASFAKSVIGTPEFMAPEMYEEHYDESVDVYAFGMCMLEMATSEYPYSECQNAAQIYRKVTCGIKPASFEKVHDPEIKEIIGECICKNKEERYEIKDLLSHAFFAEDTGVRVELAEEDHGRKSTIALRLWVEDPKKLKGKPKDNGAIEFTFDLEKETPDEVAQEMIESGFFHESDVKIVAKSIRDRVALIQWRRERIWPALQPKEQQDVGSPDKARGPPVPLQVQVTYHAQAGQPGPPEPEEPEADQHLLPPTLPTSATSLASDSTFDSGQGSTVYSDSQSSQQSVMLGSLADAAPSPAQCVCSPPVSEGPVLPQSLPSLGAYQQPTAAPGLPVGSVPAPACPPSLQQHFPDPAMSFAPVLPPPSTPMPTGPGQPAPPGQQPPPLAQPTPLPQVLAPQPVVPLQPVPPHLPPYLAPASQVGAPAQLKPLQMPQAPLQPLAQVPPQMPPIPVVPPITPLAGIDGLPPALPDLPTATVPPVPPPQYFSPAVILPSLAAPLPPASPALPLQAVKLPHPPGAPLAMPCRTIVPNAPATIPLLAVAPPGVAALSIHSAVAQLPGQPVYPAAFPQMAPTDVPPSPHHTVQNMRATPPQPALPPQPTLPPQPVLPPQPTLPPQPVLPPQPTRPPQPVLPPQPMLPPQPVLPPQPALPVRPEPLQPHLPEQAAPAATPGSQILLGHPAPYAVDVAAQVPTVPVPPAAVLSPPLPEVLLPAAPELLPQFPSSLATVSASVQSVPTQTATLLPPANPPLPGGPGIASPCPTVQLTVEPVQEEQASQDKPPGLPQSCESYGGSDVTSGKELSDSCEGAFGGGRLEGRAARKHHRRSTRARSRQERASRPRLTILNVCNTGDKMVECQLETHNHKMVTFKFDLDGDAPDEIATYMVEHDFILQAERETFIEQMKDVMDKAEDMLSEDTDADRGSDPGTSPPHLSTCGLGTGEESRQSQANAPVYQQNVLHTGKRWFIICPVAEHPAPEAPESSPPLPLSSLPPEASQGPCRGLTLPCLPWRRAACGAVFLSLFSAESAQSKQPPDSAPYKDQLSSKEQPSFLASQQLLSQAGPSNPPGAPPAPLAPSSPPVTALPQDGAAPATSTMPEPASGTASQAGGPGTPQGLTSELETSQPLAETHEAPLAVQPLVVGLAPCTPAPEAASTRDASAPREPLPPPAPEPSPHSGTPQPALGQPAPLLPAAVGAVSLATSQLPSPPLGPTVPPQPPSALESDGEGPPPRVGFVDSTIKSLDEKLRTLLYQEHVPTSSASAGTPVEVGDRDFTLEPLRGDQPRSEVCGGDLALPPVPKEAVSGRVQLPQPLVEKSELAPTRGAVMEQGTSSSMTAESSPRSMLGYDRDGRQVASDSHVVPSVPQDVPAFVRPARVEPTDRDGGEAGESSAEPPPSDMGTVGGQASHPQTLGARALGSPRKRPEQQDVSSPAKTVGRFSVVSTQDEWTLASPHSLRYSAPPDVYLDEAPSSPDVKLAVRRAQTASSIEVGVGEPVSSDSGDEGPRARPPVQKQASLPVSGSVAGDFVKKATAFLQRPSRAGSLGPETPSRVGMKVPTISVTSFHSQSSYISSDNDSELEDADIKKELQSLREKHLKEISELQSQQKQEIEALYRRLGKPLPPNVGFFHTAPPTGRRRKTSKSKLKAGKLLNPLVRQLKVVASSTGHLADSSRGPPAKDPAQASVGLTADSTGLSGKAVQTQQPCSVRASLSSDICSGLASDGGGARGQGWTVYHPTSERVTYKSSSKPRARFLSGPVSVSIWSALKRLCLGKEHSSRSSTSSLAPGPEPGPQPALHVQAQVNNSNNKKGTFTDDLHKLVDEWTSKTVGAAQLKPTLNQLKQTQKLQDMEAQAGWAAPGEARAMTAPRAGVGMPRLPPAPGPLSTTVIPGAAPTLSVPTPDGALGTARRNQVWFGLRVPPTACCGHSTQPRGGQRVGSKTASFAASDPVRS
Sequence of Rsk4 (h) (Q9UK32 whole entry): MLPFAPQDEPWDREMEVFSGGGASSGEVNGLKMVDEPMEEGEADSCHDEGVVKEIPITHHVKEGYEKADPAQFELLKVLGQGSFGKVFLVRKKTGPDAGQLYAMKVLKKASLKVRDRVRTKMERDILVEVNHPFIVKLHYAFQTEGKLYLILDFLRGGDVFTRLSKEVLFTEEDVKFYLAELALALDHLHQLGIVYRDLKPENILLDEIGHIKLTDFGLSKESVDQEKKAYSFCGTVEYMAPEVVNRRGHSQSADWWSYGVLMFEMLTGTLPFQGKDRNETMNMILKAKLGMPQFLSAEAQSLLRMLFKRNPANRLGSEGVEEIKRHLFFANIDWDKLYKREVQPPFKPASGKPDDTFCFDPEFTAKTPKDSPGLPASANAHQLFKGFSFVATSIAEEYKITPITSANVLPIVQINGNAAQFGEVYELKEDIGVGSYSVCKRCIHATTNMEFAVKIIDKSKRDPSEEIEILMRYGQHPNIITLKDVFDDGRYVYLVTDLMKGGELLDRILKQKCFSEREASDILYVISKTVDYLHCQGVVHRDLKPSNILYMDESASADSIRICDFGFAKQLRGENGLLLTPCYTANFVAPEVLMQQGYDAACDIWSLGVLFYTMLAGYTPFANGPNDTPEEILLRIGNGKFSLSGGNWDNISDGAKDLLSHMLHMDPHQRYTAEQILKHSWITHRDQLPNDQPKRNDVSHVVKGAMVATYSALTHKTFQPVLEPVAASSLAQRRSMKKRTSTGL
Sequence of MAPKAP-K3 (h) (Q16644 whole entry): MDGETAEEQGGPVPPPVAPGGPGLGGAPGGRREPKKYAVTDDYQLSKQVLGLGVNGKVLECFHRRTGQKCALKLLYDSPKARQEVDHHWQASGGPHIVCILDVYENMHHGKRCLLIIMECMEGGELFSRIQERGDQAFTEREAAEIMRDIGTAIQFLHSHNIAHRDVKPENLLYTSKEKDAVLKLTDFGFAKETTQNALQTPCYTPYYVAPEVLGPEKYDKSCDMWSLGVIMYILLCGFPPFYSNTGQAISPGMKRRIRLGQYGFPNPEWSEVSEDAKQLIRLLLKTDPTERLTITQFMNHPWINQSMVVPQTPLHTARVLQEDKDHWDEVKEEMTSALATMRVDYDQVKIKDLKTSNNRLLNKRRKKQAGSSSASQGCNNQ
Sequence of PTK5 (h) (P42685 whole entry): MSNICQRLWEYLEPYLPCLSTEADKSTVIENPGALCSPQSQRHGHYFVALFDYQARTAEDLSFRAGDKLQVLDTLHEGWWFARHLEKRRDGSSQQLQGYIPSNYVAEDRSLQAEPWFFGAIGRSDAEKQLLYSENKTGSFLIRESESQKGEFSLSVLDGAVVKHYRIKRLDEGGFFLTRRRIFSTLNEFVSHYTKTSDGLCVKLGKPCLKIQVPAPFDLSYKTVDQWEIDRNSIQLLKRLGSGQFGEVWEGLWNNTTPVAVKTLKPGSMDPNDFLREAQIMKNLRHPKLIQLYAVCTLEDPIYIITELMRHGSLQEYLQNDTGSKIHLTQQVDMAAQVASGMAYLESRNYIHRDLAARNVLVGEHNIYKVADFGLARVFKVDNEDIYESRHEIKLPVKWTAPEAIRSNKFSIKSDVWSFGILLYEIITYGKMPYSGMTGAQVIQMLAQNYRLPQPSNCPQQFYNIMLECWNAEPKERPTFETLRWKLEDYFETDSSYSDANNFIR
T5 sequence (Q05655 whole entry): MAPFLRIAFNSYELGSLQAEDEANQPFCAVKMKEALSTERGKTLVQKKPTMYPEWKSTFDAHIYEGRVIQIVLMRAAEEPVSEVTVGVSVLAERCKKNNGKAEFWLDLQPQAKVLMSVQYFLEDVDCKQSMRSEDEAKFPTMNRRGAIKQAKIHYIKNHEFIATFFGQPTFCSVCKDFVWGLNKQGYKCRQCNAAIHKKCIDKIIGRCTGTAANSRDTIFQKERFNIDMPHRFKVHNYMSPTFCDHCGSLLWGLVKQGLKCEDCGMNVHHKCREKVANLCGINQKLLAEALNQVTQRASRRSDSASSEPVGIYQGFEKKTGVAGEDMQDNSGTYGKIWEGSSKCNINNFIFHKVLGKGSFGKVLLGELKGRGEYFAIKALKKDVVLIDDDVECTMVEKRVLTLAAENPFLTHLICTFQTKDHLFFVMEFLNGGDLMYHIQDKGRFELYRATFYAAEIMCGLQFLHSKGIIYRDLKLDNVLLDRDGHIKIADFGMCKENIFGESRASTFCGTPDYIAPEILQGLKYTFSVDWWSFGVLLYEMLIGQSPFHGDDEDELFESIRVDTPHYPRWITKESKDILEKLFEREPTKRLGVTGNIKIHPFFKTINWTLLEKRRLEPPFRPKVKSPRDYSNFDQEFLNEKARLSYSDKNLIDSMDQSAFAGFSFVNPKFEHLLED
Sequence of Aurora-B (h) (Q96GD4 whole entry): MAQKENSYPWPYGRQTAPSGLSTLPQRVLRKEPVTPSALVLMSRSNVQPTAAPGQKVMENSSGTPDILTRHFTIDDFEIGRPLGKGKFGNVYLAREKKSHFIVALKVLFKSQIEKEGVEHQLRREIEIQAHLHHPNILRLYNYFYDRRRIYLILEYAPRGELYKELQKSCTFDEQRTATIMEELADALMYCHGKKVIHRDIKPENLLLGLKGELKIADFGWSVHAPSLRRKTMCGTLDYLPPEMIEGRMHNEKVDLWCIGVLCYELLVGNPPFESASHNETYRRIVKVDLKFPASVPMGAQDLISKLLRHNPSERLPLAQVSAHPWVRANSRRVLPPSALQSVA

Sequence | % activity (JNK2α2 (h)) | % activity (WNK2 (h)) | % activity (PKCβI (h)) | % activity (cKit(D816H) (h)) | % activity (PTK5 (h)) | % activity (Fyn (h)) | % activity (MAPKAP-K3 (h)) | % activity (Rsk4 (h)) | % activity (MSK1 (h)) | % activity (PKCδ (h)) | % activity (DAPK1 (h)) | % activity (Aurora-B (h)) | % activity (Haspin (h)) | % activity (SAPK4 (h)) | % activity (Rsk2 (h)) | % activity (NEK2 (h))
FAKLAARLYRKALARQLGVAA [MMI-0300] | 98% | 64% | 78% | 126% | 132% | 74% | 3% | 90% | 32% | 101% | 46% | 128% | 48% | 96% | 51% | 78%
HRRIKAWLKKIKALARQLGVAA (Mammalian) [MMI-0500] | 81% | 8% | 1% | 194% | 96% | 83% | 9% | 29% | 8% | 61% | 0% | 5% | 25% | 48% | 14% | 0%
YARAAARQARAKALNRQLGVA (Mammalian) [MMI-0200] |  | 94% | 98% |  | 108% | 75% | 39% | 125% | 50% | 101% |  | 166% | 71% |  | 101% | 97%
KAFAKLAARLYRKALARQLGVAA [MMI-0400] | 96% | 54% | 78% | 143% | 129% | 54% | 7% | 91% | 28% | 90% | 36% | 150% | 36% | 91% | 38% | 61%
